This note sets out measurements from publication PMC8542387 (2021).

Sequences and labels used below:
B1: Mip1-myc (wild type) [S. pombe] / FLAG-tagged Tor2 kinase [S. pombe] (parent complex)
chain 1: MNDRISEVSGSSRARRSVLSYGTTETGSDRYTENSNIATENGVDTASSMIDGIQSGFPQPRHGFEEEYNNAEYINMLEQVFYMYYTDKRHRGVISKKNAEPTETIHDWRMRERLKTVSAALLVCLNIGVDPPDVIKPNPAAKYECWIDPFSLPASKALEAIGKNLQQQYETLSMRTRYRHYLDPAIEEVKKLCIGQRRNAKEERILFHYNGHGVPMPTASGEIWVFNKNYTQYIPVSLYDLQSWLGAPCIYVYDCSAAGNIIVNFNRFAEQRDKEALRIAKQNPNVLAMPSHTSCIQLAACGPKETLPMNPDLPADLFTSCLTSPIEISVRWYVLQNPFPNKLNLNMLLKIPGRLQDRRTPLGELNWIFTAITDTIAWNVFPKHLFRRLFRQDLMVAALFRNFLLAERIMLVHSCHPQSSPELPPTHDHPMWNSWDLAIDNCLSQLPDMLDAESKGIAYEYKHSTFFSEQLTAFEVWLSQGLISRKPPDQLPLVLQVLLSQVHRLRALILLSKFLDLGVWAVDLALSIGIFPYVLKLLQSPAIELKPVLVFIWARILAVDDSCQADLLKDNGYGYFVQILNPNSSIFPSSNISEHRAMCAFILSVFCRGFPQGQLACLNPQVLSHCLSHLNSPDSLLRQWACLCISQLWENYSEAKWSGTRDNAHVKLAEIIVDSVPEVRASVLTAFTTFLGFPEKTEEVVAVETYIAIAALAALSDASPLVRHELVIFLSHFVVNYKKQLMVVAYESSLADILEKKNHNSISASTIYETVWQAVLVLAADPSIEISLAAEAIINYVYQSMLNSELRESFLAFLLQHLPALHKASLSKDTDTNSVTSDPKPHPFVPSVSENKILNRSFSLTRSLKGLALSLAGSDRASELLSLNGENKPAESNLNHLTSAKVPGPPAFNELEYQSELDMPLTSYLFDWSRKYFTEPQMRPNEDDEPGSICYNQRLWRRNRNEKLIYRTRPLAEYSTNGRWNQQLMTFNNTIAPRKLMFHQFEDQLITLGDKDIIQVWDWRRNRCLNSFKTSASATTNVTDMQLLNEDDVALLMTGSSDGTIKLYRDYENEKVELVTSWNSLSDLVFGDRNASLLMSWQQNCGHLLVAGDVRVIRIWDASKEICYANLPVRSSNSITSLTSDLVGCNIIVAGFSDGVLRVYDKRLPARDSLTDVWKEHSSEIVNVEMQSSGMRELISASSDGEVKLWDIRMNHSLQTFSTDNSGLTSLTVHSHAPVYATGSSNQSIKIWDTLGQNINTFRENPRFLNQPKPSSLMCLKFHPHHLLLACGDNTDSRVNLYSCTKNEIHTDSPNEF
chain 2: MKEFPGLKSRNEEIRNKAANDLYEYVIAYSRELSGEALVQFNNDVNKYVYTLIHSTDPLDRLAGVTAINRLIDYEGEDTTRITRFANYLRIILPGTDQKATVLAAKALGRLAVPGGALTSEFVNFEVKRALEWLQGERNENRRYAAVLILKELAKNTSTLIYAHIDSIFELLWHGLRDPKVTIRIASADALSEFLKIVRQRDSSIRLQWYTSILNEAQRGVAQGSSDYIHGSLLVYRQLFLKAGMFMHERYREVSDIILQFRDHKDLLIRKTVTELIATLAAYNPDEFVSNYLHVCMLHLLNLLKKENVKMLAFATIGKVAVAITNSIIPYLDPICDSIKESLKIHIRNKSASDAAIFQCISLLSIALGQAFSNYAYDLFDLIFASGLSEASYRALSDLAHNIPPLLPVIQERLLDMLSKILSGRPFIPPGCPPQYVARSLKSSKSASLKTGFFPNDVYILALKVLGNFDFSGYILNEFVKDCVVVYLENNDPEVRKTASITCSQLFARDPILSQTSDHAIQVVAEVLEKLLTVGICDTVPDIRLTVLNSLDSRFNKHLAQADKIRLLFIAINDENFAVRESALRIIGRLNVYNPAYVMPYLRKIMLKTLTILDYSTIIRTKEENAKLLCLLIAAAPRLIESHVEPILQILLPKAKDSSSIVAASIVNSLGEICQISGEVIVPFIKDLMPLIIEALQDQSSPIRRAAALKALGNLSSSTGYVIDPYIEFPSLLDILIGITKTEQDITIRRETIKLIGTLGALDPNRHRVLEKGTEKVVPEQKNIPPDISLLMSGIGPSSDEYYPTVVITALMSILKDPSLTIHHTAVIQAVMYIFKTMGLRCAPFLSQIIPEFIAVMRTCPTNILEFYFQQLSILVLIVRQHIRSFLPDLFKLIKDFWNPHSNLQFTILSLIESLARAMQGEFKPYLPSLLVMMLQIFDSDVSVDSVSTKKVLHAFIVFGDTLADYFHMLLDPILRLYERNDVSIGIKESIMITIGRLSMVINLSEYASRIIHPVMRMLSCNNASLIRVSMDTVCALIYQLNVDFAIFIPMIDKCLKMNGVTHETYSILVEQFLQEQPLPIKLNPYEKYDKPKLDVVASAADITSKKLPVNQEILRNAWEASQRSTKDDWQEWIRRLGVALLRESPSHALRACAALAAAYQPLARDLFNASFVSCWSELYDHFQEELVKSIEIALTSPHISPEIIQILLNLAEFMEHDDKPLPIDIRTLGAYAAKCHAFAKALHYKELEFIEEELVTKPSVDTIEALISINNQLQQPDAAIGILKHAQQHDKMNLKETWYEKLQRWEDALSAYEKREAAGAGNFEITMGKLRCLHALGEWDRLSQLAQENWIHAGHDARRYIAPLSVAAAWGLGQWEQMDEYISVMKSESPDKAFFNAIVALHRSQFEEAASYITRARDLLDTELTALVGESYNRAYSVAVRVQMLSELEEIITYKKAEDKPEVREMIKKTWVRRLKGCQRNVDVWQRMLRIRSLVISPRDNMEMWIKFANLCRKSGRISLAKKSLNLLLEDDENLDNSLVLKKTHPSIVYANLKFLWAVDDKRKALNSMQEFTSQLISDINVDPALFVQSTSVNTQKSQEEIQYYFHLLARCYHKQGQWQQEIENNWSEGSFDGVLQSYMYATQFDSKWYKAWHSWALANFEAVKFLEQSEEQIPSAAYEQYIIPAVKGFFKSIALSKGNLQDTLRLLNLWFKFGNNSNVINTLNVGISTVNIDIWLDVIPQLIARIHASSLSVRKSVHQLLSDVGRAHPQALVYPLTVAAKSQSSARQNAALAIMDSLKTHSPRLVEQARLVSHELIRAAILWHEQWHEGLEEASRLYFGDHNIEGMFAVLRPLHEMLERGPETLREISFQQAFGRDLVEARDCCIRFEQTGDISDLNQAWDLYYQVFKKIRKQLPQLTTLDLQYVSPKLLHVHDLELAVPGTYVSGKPVIRIVKFYPTFNVITSKQRPRRLSIKGSDGKDYQYVLKGHEDIRQDERVMQLFGLCNNLLLADPETFKRLLSIQRYPVIPLSPDSGLLGWVLDSDTLHVLIRDYRESRKILLNIEHRLIIQMAPDYDRLTLLQKVEVFEYALLSTTGQDLYRVLWLKSRSSEAWLNRRTNYSRTLAVMSMVGYILGLGDRHPSNLMLDRYTGNIIHIDFGDCFEVAMHREKFPEKIPFRLTRMLVNAMEVSGIEGTFRITCEHVMRVLRTNKESVMAVLEAFVYDPLINWRLAPAYSPSIDEKQSNEPNTLLGETIDGLHRKRLNEEGITLEERQKPEILNQRAITVLNRVSNKLTGRDFKPQQQLDVPSQVEKLILQATSIENLCLCYIGWCSFW

The assay covers variants of B1. In words: co-immunoprecipitation (anti-FLAG affinity beads) with quantified immunoblot; n=3 independent experiments; parent: 1; read off a plot.
For the variant chain 1 Y533A, the ratio to parent was about 0.9.
On to chain 1 R504A, for which the ratio to parent is about 0.53.
As to chain 1 R358A, the ratio to parent is about 0.42.
